Where no end group is shown, it is not given here. eCPX = enhanced circularly permuted OmpX display scaffold; linker = not defined here
Columns and labels:
[1] = molecular target: A1 (biotinylated pro-survival Bcl-2 family protein) (UniProt Q16548); assay: flow cytometry of E. coli displaying the peptide on eCPX, biotinylated target + streptavidin-PE; apparent Kd
[2] = molecular target: A1 (biotinylated pro-survival Bcl-2 family protein) (UniProt Q16548); assay: apparent Kd, bacterial surface display and flow cytometry

| Binder | Kd [1] [nM] | fold affinity improvement against wild-type Bim 14-mer [2] [fold] |
| --- | --- | --- |
| WIAQQLRRIGDEFN (peptide, not shown: large carriers; small tags and cut ends, not fully specified) [Bim BH3 14-mer E151Q (pseudo-wild-type) displayed on eCPX] | 29.6 | – |
| WIAQELRRIGDEFN-{linker-eCPX} (peptide, not shown: large carriers; small tags and cut ends, reading uncertain) [wild-type Bim BH3 14-mer peptide (residues 147-160) displayed on eCPX] | 26.9 | – |
| WLAQLLRRYGDEFN (peptide, not shown: large carriers; small tags and cut ends, also: displayed as fusion to eCPX scaffold (letters not given here)) [Bim BH3 14-mer variant X2-8 displayed on eCPX] | 40.5 | – |
| WLAQLLRRIGDEIN-{linker-eCPX} (peptide, not shown: large carriers; small tags and cut ends, reading uncertain; also: printed as Trp-Leu-Ala-Gln-Leu-Leu-Arg-Arg-Ile-Gly-Asp-Glu-Ile-Asn) [Bim BH3 14-mer variant M2-4 displayed on eCPX] | 4.18 | 6 |
| WVAQLLRRIGDEVN-{linker-eCPX} (peptide, not shown: large carriers; small tags and cut ends, reading uncertain; also: printed as Trp-Val-Ala-Gln-Leu-Leu-Arg-Arg-Ile-Gly-Asp-Glu-Val-Asn) [Bim BH3 14-mer variant M2-2 displayed on eCPX] | 9.99 | 3 |
| WVAQWLRRWGDEFN (peptide, not shown: large carriers; small tags and cut ends, also: displayed as fusion to eCPX scaffold (letters not given here)) [Bim BH3 14-mer variant X2-3 displayed on eCPX] | 30.2 | – |

— patent publication US20150045310A1
